Source: patent publication CN117007808A

Target: 融合蛋白gD-CD2v (猪伪狂犬病病毒 PRV HN1201; 非洲猪瘟病毒 ASFV SY18)

B1: 非洲猪瘟病毒CD2v蛋白单克隆抗体5G8 (antibody, V domains shown)
VH: YDHDYAKLGTELGSTSNGRQCAGIALTSRMKLWLNWVKQSHGKSLEWIGVIDPNNGGTTYNQKFKGKATLTVDKSSSTAYMEVRSLTSEYSAVYYCARYGKGIGLDYWGQGTSVTVSS
VL: DVVMTQTPLSLPVSLGDQASISCRSSQSLVHRNGNTYLHWYLQKPGQSPKLLIYKVSNRFSGVPDRFSGSGSGTDFTLKISRVEAVDLGVYFCSQSTHVPWTFGGGTKLEIK
With B1 the 阻断率 was 91 %.
